Consider six molecules from patent publication US20190112365A1 (EISAI R AND D MANAGEMENT, published 2019).

The target of test [1] is T1, Human Tau 2N4R, wild type, recombinant full length (human, UniProt P10636 2-758).
T1 construct: Full length 2N4R isoform; monomer in SPR and ELISA; heparin-induced aggregates or seeds in the functional assays; also called Tau441; Tau-441
Kind of test: direct ELISA on coated 2N4R Tau. The protocol: To test direct binding to Tau, 2N4R Tau was coated on 96-well plates and various concentrations of humanized mAbs were added to the wells. MAbs bound to Tau were detected with either an HRP-conjugated anti-mouse antibody (mouse [ms]7G6) or anti-human antibody (remaining samples). Samples were incubated for 1 h at room temperature in 96-well plates coated with 2N4R Tau. Following washing, HRP-conjugated anti-mouse or anti-human detection antibodies were added to the wells. The anti-mouse antibody was used to detect ms7G6. The amount of HRP activity in each well was measured by QuantaBlu fluorescent substrate and the RFUs were detected by a SpectraMax M5 plate reader.
Tau binding was analyzed by a direct ELISA as above. Samples were incubated for 1 hour at room temperature in 96-well plates coated with wild-type 2N4R Tau. After a wash step, HRP-conjugated anti-mouse or anti-human detection antibodies were added to the wells. The anti-mouse antibody was used to detect ms7G6. The amount of HRP activity in each well was measured by QuantaBlu fluorescent substrate and the RFUs were detected by a SpectraMax M5 plate reader. […] Therefore, Vκ Glu34 was critical for antigen binding.

Test [2] has as its target T1, Human Tau 2N4R, wild type, recombinant …. Kind of test: SPR, streptavidin capture; against 7G6-HCzu8-LCzu6. On the procedure: (§1) 400 μg of each antibody was diluted to 2 mg/mL and buffer-exchanged into 0.1 M sodium bicarbonate, pH 8.3 using 0.5 mL Zeba™ 40 kDa MWCO desalting columns (Thermo). NHS-PEG4-biotin, prepared immediately before use by dissolving in water to a 20 mM final stock concentration, was added to antibodies at a 5:1 molar ratio (biotin:MAb) and conjugated for 1 hr at room temperature. Excess biotin was removed by two sequential buffer exchanges into 1×DPBS using 0.5 mL Zeba™ 40 kDa MWCO desalting columns. For the BIAcore™ assay, antibodies were diluted to 2 μg/mL in PBS-P+/0.2% BSA (the same preparation used for the running buffer), centrifuged at 14,000 g for 5 min at room temperature, and the supernatant transferred to a new tube. Injection time was subsequently determined for each antibody to achieve a capture level of ˜225 RU.
(§2) Biotinylated humanized and mouse mAbs were captured on a streptavidin-coated chip and kₐ, kd, and KD were determined for binding to Tau (Table 11). […] The affinity of 7G6-HCzu8-LCzu6, 7G6-HCzu24-LCzu15, 7G6-HCzu24-LCzu18, 7G6-HCzu25-LCzu15, and 7G6-HCzu25-LCzu18 were all similar.

Test [3] shares this target. Kind of test: SPR BIAcore, biotinylated mAb on streptavidin (CAP) chip, single cycle, 1:1 Langmuir. On the procedure: as §1, §2
Test [4] has the same target. Kind of test: direct ELISA on coated 2N4R Tau. This is another data set of the same source.
Test [5] shares this target. Kind of test: SPR, streptavidin capture; against 7G6-HCzu24 and 7G6-HCzu25 mAbs. On the procedure: as §1, §2
For test [6] the target is unchanged. Kind of test: SPR BIAcore, anti-human capture, monomeric Tau, 1:1 Langmuir. The protocol: All experiments were performed using a BIAcore™ T-100 instrument (GE Healthcare). 10 μL anti-human IgG (monoclonal mouse anti-human Fc) from human antibody capture kit (GE Healthcare) was diluted to 25 μL/mL in 200 μL final immobilization buffer (10 mM sodium acetate, pH 5.0). The flow rate was set to 5 μL/min, flowpath 1. Fifty μL N-hydroxysuccinamide (NETS) and 50 μL 1-ethyl-3-(3-dimethylaminopropyl) carbidiimide (EDC) were mixed and injected for 420 sec to activate the CM5 chip surface. The diluted antibody was injected for 360 seconds followed by 1 M ethanolamine for 420 seconds. The flowpath was then switched to flowpath 2. A new EDC/NHS mixture was prepared and the procedure was repeated for flow cell 2. The surface was conditioned by 2 injections of 30 sec using flowpath 1, 2 at 30 μL/min of 3M MgCl₂. For the anti-mouse surface, 10 μL anti-mouse IgG (polyclonal rabbit anti-mouse IgG) from mouse antibody capture kit (GE Healthcare) was diluted to 30 μL/mL in 324 μL final immobilization buffer (10 mM sodium acetate, pH 5.0). The flow rate was set to 5 μL/min, flowpath 3. Fifty μL NHS and 50 μL EDC were mixed and injected for 420 sec to activate the chip surface. The diluted antibody was injected for 420 sec. 1 M ethanolamine was injected for 420 sec. Flow path was switched to flowpath 4. A new EDC/NHS mixture was prepared and the procedure was repeated for flow cell 4. The surface was conditioned by 2 injections of 30 sec using flowpath 3, 4 at 30 μL/min of 10 mM glycine, pH 1.7.
Tau binding for humanized mAbs was analyzed by BIAcore™ in two different formats. The first format was performed as above, i.e. mAbs were captured with an immobilized species-specific anti-Fc antibody. […] In the second format, biotinylated mAbs were captured on a streptavidin-coated chip. This latter format allowed direct comparison of Tau binding affinity between humanized and the parental mouse antibody since the capture method was identical.
The final humanized mAbs were analyzed by BIAcore™ to determine the kₐ, kd, and KD for binding to Tau as above (Table 10).

The target in test [7] is T2, HVPGG site of Tau (15-mer array peptides containing HVPGG) (human).
T2 peptide: HVPGG
Kind of test: peptide microarray; HVPGG site of the fourth repeat region against HQPGG (repeat region 1). On the procedure:
(§3) The diluted antibody was incubated on the chip for 16 hours at 4° C. with shaking at 140 rpm. Primary antibody was removed and the chip was washed in PBS (pH 7.4)/0.05% Tween 20. Wash buffer was removed and goat anti-mouse IgG (H+L) DyLight™680 (1:5000) and an anti-HA tag DyLight™ 800 (1:2000) in the same buffer as the primary antibody was then incubated for 45 minutes at room temperature on the chip. Detection antibody was removed and the chip was washed once again as previously. Fluorescence images were acquired on the LI-COR Odyssey™ Imaging System and the microarray data was finally analyzed using the PepSlide™ Analyser software.

Test [8] addresses T1, Human Tau 2N4R, wild type, recombinant …. Kind of test: SPR BIAcore, anti-human Fc capture, multi-cycle, 1:1 Langmuir, average of flow cells. On the procedure: A 0 nM Tau protein solution was prepared by adding 3 mL Assay Running Buffer to labeled 5 mL tube. Analyte dilutions were transferred to labeled 4 mL plastic vials and capped with type 5 caps, vortexed briefly to remove any air bubbles adhered to tube walls or bottom, and placed in Sample and Reagent Rack 1. For chip conditioning analyte sample, 5 μL of 1 μM Tau protein solution supernatant was removed and diluted to 500 μL in Assay Buffer in a 7 mm plastic vial, capped, vortexed briefly to dislodge adhered air bubbles, and placed in Sample and Reagent Rack 1. Humanized antibodies were captured on flow cells 2, 3, and 4 sequentially at a flow rate of 10 μL/min for a contact time of 36 sec. Dilutions of Tau protein were injected over all 4 flow cells at a flow rate of 30 μL/min for a contact time of 300 sec. Dissociation was followed for 1800 sec. Following each cycle, the surface was regenerated by two sequential injections of 30 sec at 30 μL/min of 3 M MgCl₂ over all four flow cells. After the run, kinetic data fitting was performed using a 1:1 Langmuir model.
The affinity of recombinant human wild-type 2N4R Tau protein to 7G6-HCzu25LCzu18 antibody was determined using an antibody-capture format assay. Following capture of 7G6-HCzu25LCzu18 antibody, human Tau protein was injected over the ligand surface for 300 sec, followed by observation and measurement of dissociation for 1800 sec. After each antibody capture, Tau protein binding, and dissociation cycle, the chip surface was regenerated to the anti-human antibody capture surface using 3M MgCl₂, as required by the manufacturer. Tau protein was analyzed in a concentration range from 100 nM to 0.046 nM (3-fold diluted). The assay was performed in multi-cycle mode, such that a dissociation was performed for each tau protein injection. Each ligand was analyzed on all three flow cells (fc2, fc3, and fc4) in triplicate, in order to eliminate any flow cell-specific effects.
Binding data was double-referenced, meaning referenced to both fc1 with no ligand bound and to buffer analyte injections (0 nM Tau protein). […]

The target in test [9] is T2, HVPGG site of Tau (15-mer array …). The experiment in a line: peptide microarray; HVPGG site of the second repeat region against HKPGG (repeat region 3). The protocol:
as §3

For test [10] the target is unchanged. The experiment in a line: peptide microarray; HVPGG site of the second repeat region against HQPGG (repeat region 1). The protocol: as §3
Test [11] shares this target. Kind of test: peptide microarray; HVPGG site of the fourth repeat region against HKPGG (repeat region 3). The protocol:
as §3

The target of test [12] is T1, Human Tau 2N4R, wild type, recombinant …. The experiment in a line: SPR, streptavidin capture; against ms7G6. The protocol:
as §1, §2

Substitutions are numbered along the chain they refer to. Values joined by “and” are separate entries in the source; they are usually repeats but may differ in a detail not shown here. Equal values may be shown once. Read-outs that look alike come from different tables or passages of the source.

T1 sequence (P10636 other isoform, or with tags, fused parts or gaps limits assumed): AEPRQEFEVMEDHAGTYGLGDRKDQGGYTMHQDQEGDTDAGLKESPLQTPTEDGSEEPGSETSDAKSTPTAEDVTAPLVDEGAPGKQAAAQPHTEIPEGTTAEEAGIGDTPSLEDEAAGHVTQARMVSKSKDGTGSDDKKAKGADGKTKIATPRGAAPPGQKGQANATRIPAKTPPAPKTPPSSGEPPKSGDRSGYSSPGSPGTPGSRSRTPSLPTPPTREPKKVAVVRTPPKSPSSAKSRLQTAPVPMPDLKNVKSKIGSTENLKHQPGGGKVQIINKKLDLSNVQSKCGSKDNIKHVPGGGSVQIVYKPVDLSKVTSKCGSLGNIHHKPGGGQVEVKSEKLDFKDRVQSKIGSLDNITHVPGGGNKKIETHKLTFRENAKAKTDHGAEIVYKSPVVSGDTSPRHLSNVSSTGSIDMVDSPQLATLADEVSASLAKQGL

B1: 7G6-HCzu5-LCzu9 (antibody, human IgG1, kappa, V domains shown)
VH: QVQLVQSGAEVKKPGASVKVSCKASGYTFTTYWITWVRQAPGQGLEWMGDIYPGSSISNYNEKFKSRVTMTVDTSTSTAYMELSSLRSEDTAVYYCAREDGYDAWFAYWGQGTLVTVSS
VL: DVVMTQSPLSLPVTLGQPASISCRSSQSIVHSNGNTYLNWFQQRPGQSPRRLISKVSNRFSGVPDRFSGSGSGTDFTLKISRVEAEDVGVYYCFQGSHVPFTFGQGTKLEIKR
notes: humanized, human IgG1 kappa; also called 7G6-LCzu9
For the molecule B1, in test [1], the binding result is on record as “no binding”.

B2: 7G6-HCzu8-LCzu21 (antibody, human IgG1, kappa, V domains shown)
VH: B1 VH with N61A, E62Q, K65Q, S66G, V72R, A79V
VL: B1 VL with V30L, N39E, R51L
modifications: N-terminal pyroglutamic acid
notes: humanized, human IgG1 kappa
Turning to B2, the “fold drop in affinity” value in [2] is under 2 fold. Further, in test [3], the equilibrium dissociation constant (Kd) stood at 0.138 nM, the koff amounted to 0.000313 s⁻¹ and the kon stood at 2.28e+06 M⁻¹ s⁻¹.

B3: 7G6-HCzu12-LCzu17 (antibody, human IgG1, kappa, V domains shown)
VH: EVQLLESGGGLVQPGGSLRLSCAASGYTFTTYWITWVRQAPGKGLEWVGDIYPGSSICNYNEKFKSRFTISVDNSKSTAYLQMNSLRAEDTAVYYCAREDGYDAWFAYWGQGTLVTVSS
VL: DVQMTQSPSSLSASVGDRVTITCRSSQSIVHSNGNTYLNWYQQKPGKAPKLLISKVSNRFSGVPSRFSGSGSGTDFTLTISSLQPEDFATYYCFQGSHVPFTFGQGTKLEIKR
notes: humanized, human IgG1 kappa; also called 7G6-LCzu17
In the case of B3, the binding result in test [4] was “no binding”.

B4: 7G6-HCzu23-LCzu15 (antibody, human IgG1, kappa)
heavy: not shown
light: DVQMTQSPSSLSASVGDRVTITCRSSQSILHSNGNTYLEWYQQKPGKAPKLLISKVSNRFSGVPSRFSGSGSGTDFTLTISSLQPEDFATYYCFQGSHVPFTFGQGTKLEIKRTVAAPSVFIFPPSDEQLKSGTASVVCLLNNFYPREAKVQWKVDNALQSGNSQESVTEQDSKDSTYSLSSTLTLSKADYEKHKVYACEVTHQGLSSPVTKSFNRGEC
notes: humanized, human IgG1 kappa
Regarding B4, in test [5], the “fold drop in affinity” value was about 2 fold. In addition, in test [6], the Kd turned out to be 0.25 nM, the koff was 0.00039 s⁻¹ and the kon worked out at 1.61e+06 M⁻¹ s⁻¹. Besides, in test [3], the Kd is 0.152 nM, the off-rate (koff) is 0.000332 s⁻¹ and the kon is 2.18e+06 M⁻¹ s⁻¹.

B5: 7G6-HCzu25-LCzu18 (antibody, human IgG1, kappa)
heavy: not shown
light: B4 light with V2I
notes: humanized, human IgG1 kappa; also called 7G6-zuHC25-zuLC18; 7G6-HCzu25-LCzu18-HEK
As to B5, the “fold preference in binding (average signal intensities)” value in test [7] is 77 fold; in [9] it was 100 fold; in [10], 65 fold; in test [11] it was 119 fold. Further, the Kd is 0.0657 nM and 0.0659 nM and 0.0645 nM in test [8]; 0.13 nM in test [6]; 0.0881 nM in test [3]. Besides, the dissociation rate constant (koff) in test [8] is 0.000126 s⁻¹ (2×) and 0.000123 s⁻¹; in test [6], 0.00014 s⁻¹; in [3] it was 0.000307 s⁻¹. Besides, the association rate constant (kon) in [8] was 1.92e+06 M⁻¹ s⁻¹ and 1.91e+06 M⁻¹ s⁻¹; in [6] it was 1.11e+06 M⁻¹ s⁻¹; in test [3] it was 3.5e+06 M⁻¹ s⁻¹. For the same molecule, the “fold drop in affinity” value in [12] is about 1.4 fold.

B6: 7G6-HCzu23-LCzu18 (antibody, human IgG1, kappa)
heavy: not shown
light: B4 light with V2I
notes: humanized, human IgG1 kappa
On to B6, for which the “fold drop in affinity” value in [5] was about 2 fold. Further, in test [6], the Kd stood at 0.22 nM, the off-rate (koff) came out at 0.00037 s⁻¹ and the kon came to 1.71e+06 M⁻¹ s⁻¹. Further, in test [3], the Kd turned out to be 0.182 nM, the off-rate (koff) was determined as 0.00039 s⁻¹ and the kon came to 2.14e+06 M⁻¹ s⁻¹.
